Laboratory results taken from paper PMC3985669.

Legend:
Hfq [1] = molecular target: Hfq (UniProt P0A6X3); assay: EMSA
Hfq [2] = molecular target: Hfq (UniProt P0A6X3); assay: footprinting

Hfq, sequence (P0A6X3 2-102): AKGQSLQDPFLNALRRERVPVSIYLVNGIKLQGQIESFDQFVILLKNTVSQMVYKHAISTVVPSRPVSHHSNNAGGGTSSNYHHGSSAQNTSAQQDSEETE

Sequence	binding (Hfq [1])	binding (Hfq [2])
GGAUGUAAUCCAUUAGUUUUAUAUUUUACCCAUUUAGGGCUGAUUUAUUACUACACACAGCAGUGCAACAUCUGUCAGUACUUCUGGUGCUUCUAUUUUAGAGGCAGCUGUCAGGUGUGCGAUCAAUAAAAAAAGCGGGGUUUCAUCAUGUUUAAUGAAGUCCAUAGUAUUCAUGGUCAUACAUUAUUGUUGAUCACUAAAUCUUCUUUGCAGGCG [RydC + csgD mRNA215 duplex]	binds	
GGAUGUAAUCCAUUAGUUUUAUAUUUUACCCAUUUAGGGCUGAUUUAUUACUACACACAGCAGUGCAACAUCUGUCAGUACUUCUGGUGCUUCUAUUUUAGAGGCAGCUGUCAGGUGUGCGAUCAAUAAAAAAAGCGGGGUUUCAUCAUGUUUAAUGAAGUCCAUAGUAUUCAUGGUCAUACAUUAUUGUUGAUCACUAAAUCUUCUUUGCAGGCG [csgD mRNA215]	binds	binds
